Reference: US20210198347A1 (Chugai, published 2021)

T1: Native proenzyme human C1s (Comptech A103) (human, UniProt P09871 16-688)
T1 construct: mature; Bought native protein; also called native human C1s Proenzyme; native human C1s proenzyme protein (CompTech)
T1 sequence (looked up): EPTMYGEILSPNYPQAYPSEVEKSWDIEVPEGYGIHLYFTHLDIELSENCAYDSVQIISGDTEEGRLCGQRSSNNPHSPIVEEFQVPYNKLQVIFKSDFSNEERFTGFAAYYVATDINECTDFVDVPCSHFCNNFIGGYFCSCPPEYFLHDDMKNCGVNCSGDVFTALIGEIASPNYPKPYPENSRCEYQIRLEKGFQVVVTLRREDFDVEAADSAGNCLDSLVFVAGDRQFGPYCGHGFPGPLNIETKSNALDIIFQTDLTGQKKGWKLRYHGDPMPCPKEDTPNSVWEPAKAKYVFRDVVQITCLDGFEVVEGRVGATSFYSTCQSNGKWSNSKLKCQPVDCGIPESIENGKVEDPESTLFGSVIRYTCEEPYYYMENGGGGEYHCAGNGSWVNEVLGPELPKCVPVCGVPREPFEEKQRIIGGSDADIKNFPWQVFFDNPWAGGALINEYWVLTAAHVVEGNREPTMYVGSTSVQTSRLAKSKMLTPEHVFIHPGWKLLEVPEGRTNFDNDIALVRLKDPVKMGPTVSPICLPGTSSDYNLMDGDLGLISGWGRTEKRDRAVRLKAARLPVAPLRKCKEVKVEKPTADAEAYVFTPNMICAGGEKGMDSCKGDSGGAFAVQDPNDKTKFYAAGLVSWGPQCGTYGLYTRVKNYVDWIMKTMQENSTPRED

T2: recombinant human C1s CCP1-CCP2-SP-His (human, UniProt P09871 292-688)
T2 construct: Truncated protein lacking the CUB1-EGF-CUB2 domain; also called human C1s CCP1-CCP2-SP M292-D688
T2 sequence: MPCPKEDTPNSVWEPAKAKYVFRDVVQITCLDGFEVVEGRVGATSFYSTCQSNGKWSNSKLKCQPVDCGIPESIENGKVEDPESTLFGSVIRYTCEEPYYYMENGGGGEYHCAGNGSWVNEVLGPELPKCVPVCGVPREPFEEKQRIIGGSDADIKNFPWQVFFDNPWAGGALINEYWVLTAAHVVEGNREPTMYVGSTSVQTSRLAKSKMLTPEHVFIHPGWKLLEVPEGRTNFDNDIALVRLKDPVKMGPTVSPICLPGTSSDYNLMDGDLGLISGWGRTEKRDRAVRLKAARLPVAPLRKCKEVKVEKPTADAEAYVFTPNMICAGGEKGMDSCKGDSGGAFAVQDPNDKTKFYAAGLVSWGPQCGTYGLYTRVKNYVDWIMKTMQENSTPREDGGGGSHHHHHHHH


Experiments:
[1] = biological target: T1, Native proenzyme human C1s (Comptech …); experiment: SPR (BIACORE T200, 37 degrees C, pH 7.4), antibody captured by protein A/G, C1s 50 nM
Protocol: The binding specificities of the six C1s CUB1-EGF-CUB2 binders were determined at 37 degrees C. using BIACORE® T200 instrument (GE Healthcare). Recombinant Protein A/G (Pierce) was immobilized onto all flow cells of a CM4 sensor chip using an amine coupling kit (GE Healthcare). Antibodies and analytes were prepared in 7(+) buffer (20 mM ACES, 150 mM NaCl, 1.2 mM CaCl₂, 0.05% Tween 20, 0.005% NaN₃, pH 7.4). Each antibody was captured onto the sensor surface by protein A/G. Antibody capture levels were aimed at 100 resonance unit (RU). Native proenzyme human C1s (Comptech A103) (at 50 nM as a monomer) or recombinant human C1s CCP1-CCP2-SP-His (at 100 nM as a monomer) was injected, followed by dissociation. Sensor surface was regenerated each cycle with 10 mM Glycine-HCl pH 1.5. The six C1s CUB1-EGF-CUB2 binders bound to the native proenzyme human C1s, but not recombinant human C1s CCP1-CCP2-SP-His, which is a truncated protein lacking the CUB1-EGF-CUB2 domain.

[2] = biological target: T2, recombinant human C1s CCP1-CCP2-SP-His; experiment: SPR (BIACORE T200, 37 degrees C, pH 7.4, 1.2 mM CaCl2), antibody captured by protein A/G

Binder | binding result [1] | binding result [2]
COS0448oo-SG1148 (antibody, human IgG1, kappa, V domains shown, Rabbit B-cell derived variable regions; also called COS448; COS44800(-SG1148)) VH: QSVEESGGRLVTPGTPLTLTCTVSGFSLSNYGMIWVRQAPGEGLEYIGFVSGSGSAYYANWVKGRFTISKTSTTVDLKMTSLTTEDTATYFCARGAYNTDSYSYSLYYGMDLWGPGTLVTVSS VL: QIVMTQTPASVEVAVGGTVTIKCQASQSIYSYLSWYQQKPGQPPKLLIYGASTLASGVPSRFKGSRSGTEFTLTISDLECADAATYYCQSNYATTTTYGTFGGGTKVEIKR | binds | no binding (tested: 100 nM)
COS0631gg-SG1148 (antibody, human IgG1, kappa, V domains shown) VH: QSVEESGGRLVTPGTPLTLTCTVSGFSLSRYSMGWVRQAPGKGLEWIGIIYADGGAYYASWAKGRFTISKTSTTMDLKVTSPTTEDTATYFCARGQFINSNEFFNPWGPGTLVTVSS VL: QVLTQTASSVSAVVGGTVTINCQASQSLHNNKNLAWYQQKPGQPPRLLIYYASTLASGVSSRFKGSGSGTQFTLTISDLECDDAATYYCAGEFSCSNGDCNAFGGGTKVEIKR | binds | no binding (tested: 100 nM)

Other lines, results leading:

binding result [1] | binding result [2] | Binder
binds | no binding (tested: 100 nM) | COS0637cc-SG1148 (antibody, human IgG1, kappa, V domains shown) VH: QSLEESGGRLVTPGTPLTLTCTASGFSLSAYAMNWVRQAPGKGLEWIGLIYGSGSTFYASWAKGRFTISKTSTTVDLKMTSLTTEDTATYFCARGRSVNYNSDFKLWGPGTLVTVSS VL: QVLTQTPSSVSAAVGGTVTINCQASQSLHDKKNLAWYQHKPGQRPNLLIYGASTLESGVPSRFKGSGSGTEYTLTISDLECDDAAAYYCQGEFSCSSADCNTFGGGTKVEIKR
binds | no binding (tested: 100 nM) | COS0499ee-SG1148 (antibody, human IgG1, kappa, V domains shown, also called COS499; COS499ee(-SG1148)) VH: QSLEESGGRLVTPGTPLTLTCTASGFSLSNYNMAWVRQAPGKGLEWIGIIETTTNTYYARWARGRFTISKTSSTTVDLQIASPTTEDTATYFCGRRVSNSHDLWGPGTLVTVSS VL: AYDMTQTPASVSAAVGGTVTINCQASQTIGGWCAWYQQKPGQPPKLLIYKASTLASGVSSRFKGSGSGTEFALTISDLECDDAATYYCQHGYYTSSTIENTFGGGTKVEIKR
binds | no binding (tested: 100 nM) | COS0547gg-SG1148 (antibody, human IgG1, kappa, V domains shown) VH: QSLEESGGRLVTPGTPLTLTCTASGFSLSSYHMDWVRQAPGKGLEWIGIITYTGDTYYATWAKGRFTISKTSSTTVDLKMASLTTEDTATYFCARRQYDAYNVWGPGTLVTVSS VL: AYDMTQTPASVEVAVGGTVTIKCQASQSINNYLAWYQQKPGQPPKLLIYYASTLASGVPSRFKGSRSGTEFTLTISGVECADAATYYCQHGYYTSSNIDSVFGGGTKVEIKR
